In the supplement of paper PMC10567573 one finds protein stability index data, which are given here for 84 variants.

Sequences and labels used below:
B1: TRIM35 (parent)
chain: PTCPVCKDRASPADLRTNHTLNNL
B2: RSPH3 (parent)
chain: QRLEEQERRHREEKERRKKQQWEI
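Also: lentivirally expressed fusions sorted by FACS into six bins by GFP to DsRed ratio, PSI derived from sequencing read proportions per bin multiplied by bin number.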

In one data set the parent is B1. As to the kind of experiment: protein stability index of a GFP-peptide fusion (GPS, HEK-293T) (PSI 1-6); higher = more stable. Conditions: c terminus: a fixed tail appended.
N22H: the protein stability index was found to be 2.9.

N22D: the protein stability index worked out at 4.1.

As for N22S, the protein stability index was found to be 2.99.

Take N22W: the protein stability index was determined as 2.02.

Take N22L: the protein stability index was 2.56.

In the case of N22R, the protein stability index was 1.98.

For N22C, the protein stability index was found to be 4.13.

On to N22P, for which the protein stability index came out at 2.44.

Turning to N22Y, the protein stability index came out at 2.38.

For the variant N22M, the protein stability index came to 2.67.

With N22F, the protein stability index was 2.13.

Consider N22E, for which the protein stability index is 3.73.

Regarding N22A, the protein stability index worked out at 3.06.

As for N22G, the protein stability index amounted to 3.39.

Turning to N22T, the protein stability index worked out at 2.76.

With N22I, the protein stability index came out at 2.65.

Variants of B2 are the subject of the next data set. The description is as above. The conditions noted are these: c terminus: a fixed tail appended.
For Q21L, the protein stability index was found to be 4.53.

As to Q21Y, the protein stability index amounted to 4.52.

Q21V: the protein stability index stood at 4.01.

Take Q6T: the protein stability index turned out to be 4.81.

In the case of Q6I, the protein stability index stood at 4.62.

As to R2C, the protein stability index was 4.58.

For R2W, the protein stability index came out at 3.79.

With R8N, the protein stability index is 3.93.

For the variant E4W, the protein stability index was determined as 4.04.

Take E4K: the protein stability index was 4.44.

In the case of E4T, the protein stability index is 4.15.

For R17W, the protein stability index came to 4.02.

Turning to R17V, the protein stability index came out at 4.56.

With R17K, the protein stability index came to 4.92.

Take R17L: the protein stability index turned out to be 5.03.

With R17E, the protein stability index came to 5.3.

On to I24G, for which the protein stability index amounted to 4.83.

As for I24A, the protein stability index stood at 5.

As for I24M, the protein stability index amounted to 4.56.

Take E13C: the protein stability index amounted to 3.82.

For E13K, the protein stability index turned out to be 4.17.

In the case of E13L, the protein stability index was 3.95.

E5M: the protein stability index worked out at 4.59.

In the case of E5Y, the protein stability index came to 4.28.

Consider E23T, for which the protein stability index was 3.96.

For E23K, the protein stability index stood at 4.42.

With E23P, the protein stability index amounted to 4.26.

H10W: the protein stability index is 4.49.

As for H10F, the protein stability index stood at 4.48.

For the variant K19F, the protein stability index came to 4.02.

Turning to E12C, the protein stability index turned out to be 4.32.

On to E12I, for which the protein stability index came out at 3.64.

In the case of E12Q, the protein stability index stood at 4.2.

With Q20I, the protein stability index turned out to be 4.6.

As for Q20M, the protein stability index was determined as 3.86.

Turning to R16N, the protein stability index stood at 4.82.

Regarding R16S, the protein stability index came to 4.9.

On to L3R, for which the protein stability index worked out at 5.08.

Regarding R11D, the protein stability index was 4.93.

For R11K, the protein stability index turned out to be 4.23.

R11C: the protein stability index came out at 4.83.

Turning to R11L, the protein stability index was found to be 4.25.

As to R11H, the protein stability index was 4.51.

As for E15G, the protein stability index was 4.36.

Regarding E15I, the protein stability index came out at 4.09.

Consider E15M, for which the protein stability index is 4.02.

In the case of E15L, the protein stability index is 4.63.

For the variant Q1Y, the protein stability index stood at 4.42.

With Q1W, the protein stability index was found to be 4.13.

Q1H: the protein stability index was determined as 5.33.

For the variant Q1T, the protein stability index was determined as 4.78.

Regarding E7L, the protein stability index stood at 4.55.

In the case of E7G, the protein stability index turned out to be 3.95.

Regarding E7N, the protein stability index is 4.25.

E7I: the protein stability index worked out at 3.86.

In the case of K18L, the protein stability index is 4.27.

In the case of K18S, the protein stability index turned out to be 4.49.

On to R9Y, for which the protein stability index was found to be 4.66.

As for R9H, the protein stability index was determined as 5.33.

Consider R9N, for which the protein stability index worked out at 4.56.

Consider R9P, for which the protein stability index is 4.92.

For the variant W22F, the protein stability index was 4.97.

Turning to W22K, the protein stability index worked out at 5.

As for W22C, the protein stability index was 5.21.

In the case of W22R, the protein stability index stood at 5.43.

Regarding K14D, the protein stability index came out at 4.65.

K14M: the protein stability index turned out to be 4.25.

Take K14V: the protein stability index was found to be 4.72.
